According to article PMC11387628:

Columns and labels:
GFP-WIPI2b S68D (human) = test: co-IP; GFP-Trap of GFP-WIPI2b WT or mutants from lysates of transfected HEK293A or HEK293A WIPI2 KO cells (full medium or 2 h EBSS), 2 h at 4 °C; washed in TNTE wash buffer (50 mM Tris pH 7.5, 300 mM NaCl, 5 mM EDTA, 0.1% Triton-X100); endogenous ULK1, ATG13 and ATG16L1 detected by western blot
GFP-WIPI2b S68A (human) = test: as above

percent reduction of binding compared to WIPI2b WT (GFP-WIPI2b S68D (human)): > 60%
percent reduction of binding compared to WIPI2b WT (GFP-WIPI2b S68A (human)): 30%
Substance: endogenous ATG16L1 (from UniProt Q676U5 1-607) (natural protein)
